Experimental data reported in US20110269161.

Key:
[1] = target: T1, peptide C6 (TKRSGSVYEPPFR), derived from phosphorylase b kinase regulatory subunit beta (Ser26)
T1 chain: TKRSGSVYEPPFR

[2] = target: T2, peptide F6 (RIRTQSFSLQPFR), derived from nitric-oxide synthase, endothelial (Ser1176)
T2 chain: RIRTQSFSLQPFR

[3] = target: T3, peptide G5 (SKRRNSEFEIPFR), derived from tryptophan 5-hydroxylase 1 (Ser58)
T3 chain: SKRRNSEFEIPFR

[4] = target: T4, peptide E11 (RKRLISSVEDPFR), derived from tuberin (Ser1798)
T4 chain: RKRLISSVEDPFR

[5] = target: T5, peptide B6 (PKRKVSSAEGPFR), derived from nonhistone chromosomal protein HMG-14 (Ser6)
T5 chain: PKRKVSSAEGPFR

[6] = target: T6, peptide C11 (NKRRGSVPILPFR), derived from erythrocyte membrane protein band 4.2 (Ser247)
T6 chain: NKRRGSVPILPFR

B1: 90 kDa ribosomal S6 kinases 1 (RSK1, 1-735), purified human active kinase (protein)
chain: MPLAQLKEPWPLMELVPLDPENGQTSGEEAGLQPSKDEGVLKEISITHHVKAGSEKADPSHFELLKVLGQGSFGKVFLVRKVTRPDSGHLYAMKVLKKATLKVRDRVRTKMERDILADVNHPFVVKLHYAFQTEGKLYLILDFLRGGDLFTRLSKEVMFTEEDVKFYLAELALGLDHLHSLGIIYRDLKPENILLDEEGHIKLTDFGLSKEAIDHEKKAYSFCGTVEYMAPEVVNRQGHSHSADWWSYGVLMFEMLTGSLPFQGKDRKETMTLILKAKLGMPQFLSTEAQSLLRALFKRNPANRLGSGPDGAEEIKRHVFYSTIDWNKLYRREIKPPFKPAVAQPDDTFYFDTEFTSRTPKDSPGIPPSAGAHQLFRGFSFVATGLMEDDGKPRAPQAPLHSVVQQLHGKNLVFSDGYVVKETIGVGSYSECKRCVHKATNMEYAVKVIDKSKRDPSEEIEILLRYGQHPNIITLKDVYDDGKHVYLVTELMRGGELLDKILRQKFFSEREASFVLHTIGKTVEYLHSQGVVHRDLKPSNILYVDESGNPECLRICDFGFAKQLRAENGLLMTPCYTANFVAPEVLKRQGYDEGCDIWSLGILLYTMLAGYTPFANGPSDTPEEILTRIGSGKFTLSGGNWNTVSETAKDLVSKMLHVDPHQRLTAKQVLQHPWVTQKDKLPQSQLSHQDLQLVKGAMAATYSALNSSKPTPQLKPIESSILAQRRVRKLPSTTL
[1]
  in vitro peptide phosphorylation by recombinant kinase (KAYAK, LC-MS): recombinant RSK1 could robustly phosphorylate peptides B6, C6, C11 and G5 in vitro
[2]
  peptide phosphorylation, 100 µM peptide reacted individually: both RSK and Akt demonstrated strong phosphorylation
[3]
  in vitro peptide phosphorylation by recombinant kinase (KAYAK, LC-MS): recombinant RSK1 could robustly phosphorylate peptides B6, C6, C11 and G5 in vitro
[4]
  phosphorylation by purified kinase (KAYAK profiling of 90 peptides): is preferably phosphorylated by purified RSK1 enzyme
[5]
  in vitro peptide phosphorylation by recombinant kinase (KAYAK, LC-MS): recombinant RSK1 could robustly phosphorylate peptides B6, C6, C11 and G5 in vitro
[6]
  in vitro peptide phosphorylation by recombinant kinase (KAYAK, LC-MS): recombinant RSK1 could robustly phosphorylate peptides B6, C6, C11 and G5 in vitro
